Reference: paper PMC8457756

Columns and labels:
Experiment in all cases: EMSA
Conditions in all cases: EMSA: 0.5 uM dsDNA probe, semi-pure TF titrated, PBS + NP40, 10 uL; 6% polyacrylamide gel, 0.5x TBE, 100 V 1 h, room temperature running buffer; pH and …
[1] = tested on: GlyR2 (Clostridium thermocellum DSM 1313)
[2] = tested on: TetR_0692 (Clostridium thermocellum DSM 1313)
[3] = tested on: BlaI_1845 (Clostridium thermocellum DSM 1313)
[4] = tested on: GntR_1482 (Clostridium thermocellum DSM 1313)
[5] = tested on: Rex_2471 (Clostridium thermocellum DSM 1313)

Sequence: TGATATGGGGTGTTTGCTGTTTTTGCC (double strand) [negative oligo 27 bp]
- binding signal (% probe shifted) [1]: < 10
- binding signal (% probe shifted) [2]: < 10
- binding signal (% probe shifted) [3]: < 10

Sequence: ACCCCTGATTATGACAACATGACAGTAACAATCCGG (double strand) [GntR_1482 test oligo]
- binding signal (% probe shifted) [4]: > 70

Sequence: GACCATAACAATAGTCCAAGTTCATCT (double strand) [BlaI_1845 test oligo]
- binding signal (% probe shifted) [3]: > 70

Sequence: ATTATTTTATTTTGTTATATTTTTAACAAAAAAATTATT (double strand) [Rex_2471 test oligo]
- binding signal (% probe shifted) [5]: > 70

Sequence: TAATTGGATCTTTGTTAATTGCAGTTTT (double strand) [GntR_1482 negative oligo]
- binding signal (% probe shifted) [4]: < 10

Sequence: TAAGCAGGGATATGACCACGTGGTCACCGTCCTCTG (double strand) [TetR_0692 test oligo]
- binding signal (% probe shifted) [2]: > 70

Sequence: TATAGCACCGGTAACATTACAAATCATAGAAT (double strand) [GlyR2 test oligo]
- binding signal (% probe shifted) [1]: > 70

Sequence: CAGGATGTAATGGCTTGTCGTCAGACCGGAG (double strand) [Rex_2471 negative oligo]
- binding signal (% probe shifted) [5]: < 10
